Experimental data from the supplement of paper PMC10724198.
± gives the standard deviation of the averaged measurements.

How the values were obtained:
[1] = system: Saccharomyces cerevisiae; assay: protein stability index of tFT-peptide fusion (C-terminal peptide) (PSI (0-1 scale)); higher = more stable (slower turnover)
Experimental: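 MPS profiling in S. cerevisiae of the tFT-X12 degron library: putative degron peptides plus stable controls, 12 aa, fused to the C-terminus of a sfGFP-mCherry timer. Cells are FACS-sorted into 8 mCherry/sfGFP bins and deep-sequenced. PSI runs from 0 (unstable) to 1 (stable). Backgrounds are wild type, das1Δ and doa10Δ at 30 °C, and wild type, das1Δ, cdc34-1 and cdc53-1 at 37 °C; 2-3 technical replicates each.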

[2] = system: Saccharomyces cerevisiae; assay: as above; details: genetic background: wild type; temperature: 30 C
[3] = genetic background: cdc34-1, temperature: 37 C
[4] = genetic background: cdc53-1, temperature: 37 C
[5] = genetic background: das1 deletion, temperature: 30 C
[6] = genetic background: das1 deletion, temperature: 37 C
[7] = genetic background: doa10 deletion, temperature: 30 C
[8] = genetic background: wild type, temperature: 30 C
[9] = genetic background: wild type, temperature: 37 C
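Also: PSI is a weighted mean of sequencing reads over stability bins, variants kept only with over 10 reads, mCherry proximal and sfGFP distal, peptide attached via GGGS linker.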

Sequence | protein stability index [1, 3] | protein stability index [1, 4] | protein stability index [1, 5] | protein stability index [1, 6] | protein stability index [1, 7] | protein stability index [1, 8] | protein stability index [1, 9] | protein stability index [2]
KKNLTHSIRVQA | 0.62 ± 0.028 | 0.717 ± 0.0094 | 0.567 ± 0.033 | 0.696 ± 0.011 | 0.352 ± 0.017 | 0.377 ± 0.021 | 0.585 ± 0.015 | 0.505 ± 0.025
GGYGAGLRSPLF | 0.709 ± 0.04 | 0.755 ± 0.013 | 0.6761 ± 0.0025 | 0.741 ± 0.015 | 0.664 ± 0.014 | 0.661 ± 0.0099 | 0.729 ± 0.022 | 0.736 ± 0.044
PLATSLIGLFVV | 0.663 ± 0.098 | 0.716 ± 0.013 | 0.522 ± 0.028 | 0.661 ± 0.021 | 0.273 ± 0.018 | 0.298 ± 0.032 | 0.4673 ± 0.0014 | 0.433 ± 0.039
GVLRMAPGRVMC | 0.599 ± 0.031 | 0.704 ± 0.0083 | 0.598 ± 0.024 | 0.702 ± 0.016 | 0.159 ± 0.02 | 0.175 ± 0.0027 | 0.345 ± 0.04 | 0.268 ± 0.032
FLYSVLLICKFI | 0.214 ± 0.029 | 0.258 ± 0.016 | 0.224 ± 0.037 | 0.389 ± 0.013 | 0.118 ± 0.016 | 0.0757 ± 0.035 | 0.0829 ± 0.034 | 0.135 ± 0.12
KVLLYWRHAQRQ | 0.652 ± 0.052 | 0.6916 ± 0.006 | 0.654 ± 0.019 | 0.733 ± 0.01 | 0.387 ± 0.0069 | 0.44 ± 0.0086 | 0.611 ± 0.013 | 0.548 ± 0.11
MPQSLKKMVFLA | 0.431 ± 0.057 | 0.628 ± 0.022 | 0.61 ± 0.032 | 0.6621 ± 0.005 | 0.0709 ± 0.025 | 0.0847 ± 0.0032 | 0.0875 ± 0.024 | 0.1516 ± 0.0014
SPCLSWTLVLVL | 0.275 ± 0.013 | 0.324 ± 0.0061 | 0.215 ± 0.026 | 0.407 ± 0.0077 | 0.195 ± 0.0034 | 0.203 ± 0.016 | 0.345 ± 0.0051 | 0.302 ± 0.037
FVVVGLGLLCLA | 0.492 ± 0.0066 | 0.565 ± 0.011 | 0.362 ± 0.027 | 0.569 ± 0.0068 | 0.257 ± 0.015 | 0.305 ± 0.02 | 0.491 ± 0.014 | 0.473 ± 0.013
FPCRNFMVFFCF | 0.425 ± 0.029 | 0.442 ± 0.008 | 0.43 ± 0.035 | 0.505 ± 0.0097 | 0.211 ± 0.0036 | 0.204 ± 0.0085 | 0.285 ± 0.03 | 0.29 ± 0.03
YLCFVVSCGVLR | 0.421 ± 0.0051 | 0.475 ± 0.026 | 0.327 ± 0.031 | 0.529 ± 0.0087 | 0.295 ± 0.018 | 0.313 ± 0.017 | 0.5035 ± 0.0016 | 0.383 ± 0.086
FVFAMSECIVLS | 0.269 ± 0.014 | 0.318 ± 0.0043 | 0.205 ± 0.025 | 0.393 ± 0.0046 | 0.269 ± 0.0044 | 0.214 ± 0.022 | 0.364 ± 0.00049 | 0.308 ± 0.0053
FFLLTCFLLPSV | 0.44 ± 0.03 | 0.512 ± 0.013 | 0.346 ± 0.036 | 0.526 ± 0.014 | 0.328 ± 0.013 | 0.341 ± 0.024 | 0.514 ± 0.014 | 0.441 ± 0.015
SVLCLFSRLRSV | 0.625 ± 0.022 | 0.7308 ± 0.0022 | 0.638 ± 0.015 | 0.736 ± 0.0017 | 0.17 ± 0.0041 | 0.19 ± 0.032 | 0.383 ± 0.011 | 0.354 ± 0.069
FYIRFYVYSWLF | 0.376 ± 0.0093 | 0.441 ± 0.011 | 0.304 ± 0.051 | 0.492 ± 0.0077 | 0.278 ± 0.0083 | 0.303 ± 0.01 | 0.46 ± 0.0047 | 0.3604 ± 0.0023
LSVYGFYKMPAG | 0.501 ± 0.024 | 0.5271 ± 0.0027 | 0.487 ± 0.011 | 0.561 ± 0.018 | 0.521 ± 0.032 | 0.491 ± 0.0073 | 0.5368 ± 0.0015 | 0.502 ± 0.031
FFMLWCRVLLRL | 0.144 ± 0.026 | 0.102 ± 0.017 | 0.215 ± 0.014 | 0.278 ± 0.0028 | 0.18536 ± 0.00012 | 0.145 ± 0.031 | 0.167 ± 0.0071 | 0.2187 ± 0.002
FLFQYLCIISSL | 0.0463 ± 0.007 | 0.166 ± 0.037 | 0.133 ± 0.046 | 0.233 ± 0.023 | 0.0866 ± 0.028 | 0.0716 ± 0.026 | 0.161 ± 0.013 | 0.217 ± 0.037
GLACNPQLLRWT | 0.692 ± 0.014 | 0.7433 ± 0.0064 | 0.653 ± 0.018 | 0.7437 ± 0.0035 | 0.665 ± 0.035 | 0.654 ± 0.027 | 0.7175 ± 0.0069 | 0.756 ± 0.051
VCCSILFSAFLV | 0.614 ± 0.088 | 0.6552 ± 0.0051 | 0.532 ± 0.019 | 0.653 ± 0.001 | 0.4 ± 0.024 | 0.4 ± 0.012 | 0.549 ± 0.013 | 0.475 ± 0.041

Sequence | protein stability index [1, 3] | protein stability index [1, 4] | protein stability index [1, 5] | protein stability index [1, 6] | protein stability index [1, 7] | protein stability index [1, 8] | protein stability index [1, 9] | protein stability index [2]
SVPIAFYLLFFQ | 0.557 ± 0.0081 | 0.605 ± 0.027 | 0.458 ± 0.021 | 0.648 ± 0.013 | 0.434 ± 0.013 | 0.456 ± 0.016 | 0.575 ± 0.016 | 0.464 ± 0.021
SRPLYVMICTRV | 0.4376 ± 0.00075 | 0.522 ± 0.035 | 0.327 ± 0.024 | 0.558 ± 0.018 | 0.246 ± 0.0034 | 0.287 ± 0.018 | 0.503 ± 0.022 | 0.386 ± 0.0086
VTEGMKEVIKQI | 0.647 ± 0.014 | 0.702 ± 0.026 | 0.629 ± 0.044 | 0.728 ± 0.013 | 0.3751 ± 0.00062 | 0.402 ± 0.038 | 0.6073 ± 0.0042 | 0.482 ± 0.0079
CRQDWMCFVYLS | 0.0642 ± 0.013 | 0.0406 ± 0.0042 | 0.145 ± 0.021 | 0.187 ± 0.031 | 0.166 ± 0.0047 | 0.0558 ± 0.007 | 0.0647 ± 0.023 | 0.108 ± 0.016
MGVTVRVEGIRA | 0.52 ± 0.036 | 0.517 ± 0.013 | 0.368 ± 0.03 | 0.55332 ± 0.0004 | 0.3374 ± 0.00071 | 0.383 ± 0.013 | 0.537 ± 0.015 | 0.369 ± 0.084
HWVRLSSLAFVS | 0.2245 ± 0.0018 | 0.289 ± 0.011 | 0.289 ± 0.036 | 0.233 ± 0.0082 | 0.202 ± 0.022 | 0.183 ± 0.014 | 0.1895 ± 0.00075 | 0.176 ± 0.01
SFSFRPCLLLFF | 0.32771 ± 1.1e-05 | 0.355 ± 0.0074 | 0.357 ± 0.036 | 0.51 ± 0.0096 | 0.38211 ± 0.00035 | 0.283 ± 0.033 | 0.417 ± 0.021 | 0.336 ± 0.099
GELPGELYKFWL | 0.769 ± 0.052 | 0.7774 ± 0.005 | 0.664 ± 0.022 | 0.7558 ± 0.0025 | 0.671 ± 0.024 | 0.671 ± 0.016 | 0.743 ± 0.021 | 0.754 ± 0.03
HLILWLFFVIVF | 0.237 ± 0.012 | 0.193 ± 0.047 | 0.216 ± 0.024 | 0.333 ± 0.0038 | 0.237 ± 0.012 | 0.186 ± 0.012 | 0.271 ± 0.0074 | 0.304 ± 0.23
VSIRVVVWVSWG | 0.133 ± 0.0081 | 0.2248 ± 0.00098 | 0.145 ± 0.022 | 0.259 ± 0.011 | 0.121 ± 0.0089 | 0.143 ± 0.02 | 0.223 ± 0.013 | 0.226 ± 0.032
GVSLQLHVAVLI | 0.72 ± 0.39 |  | 0.483 ± 0.053 | 0.542 ± 0.056 | 0.275 ± 0.036 | 0.278 ± 0.0093 | 0.4284 ± 0.0018 | 0.44 ± 0.047
SLCELRCLLRVG | 0.573 ± 0.027 | 0.636 ± 0.022 | 0.522 ± 0.017 | 0.631 ± 0.0023 | 0.471 ± 0.018 | 0.481 ± 0.018 | 0.606 ± 0.013 | 0.473 ± 0.021
KKKKRVKIQKKN | 0.628 ± 0.059 | 0.707 ± 0.052 | 0.683 ± 0.041 | 0.689 ± 0.041 | 0.259 ± 0.04 | 0.244 ± 0.061 | 0.446 ± 0.009 | 0.404 ± 0.03
CFFFPCFSFRFL | 0.39 ± 0.0076 | 0.448 ± 0.012 | 0.416 ± 0.024 | 0.528 ± 0.015 | 0.377 ± 0.02 | 0.296 ± 0.011 | 0.453 ± 0.033 | 0.342 ± 0.041
CYRRCQAFLVLV | 0.313 ± 0.024 | 0.397 ± 0.015 | 0.334 ± 0.031 | 0.449 ± 0.015 | 0.134 ± 0.0022 | 0.127 ± 0.026 | 0.162 ± 0.011 | 0.181 ± 0.0026
QCRLPRPPLSLP | 0.676 ± 0.017 | 0.7414 ± 0.0062 | 0.651 ± 0.022 | 0.7354 ± 0.0058 | 0.672 ± 0.032 | 0.692 ± 0.009 | 0.693 ± 0.0099 | 0.436 ± 0.022
MALAVRVVRCGA | 0.406 ± 0.0042 | 0.422 ± 0.018 | 0.302 ± 0.025 | 0.4769 ± 0.0017 | 0.227 ± 0.043 | 0.233 ± 0.038 | 0.379 ± 0.033 | 0.353 ± 0.024
SINKLLILIKSI | 0.429 ± 0.026 | 0.618 ± 0.028 | 0.525 ± 0.03 | 0.629 ± 0.018 | 0.0798 ± 0.019 | 0.0738 ± 0.0087 | 0.112 ± 0.069 | 0.13 ± 0.028
PPSRSPLPPLLH | 0.657 ± 0.04 | 0.729 ± 0.024 | 0.687 ± 0.041 | 0.707 ± 0.017 | 0.6917 ± 0.0047 | 0.686 ± 0.027 | 0.694 ± 0.031 | 0.723 ± 0.027
